Values of other authors in publication PMC10631023.
Values joined by “and” are separate entries in the source; they are usually repeats but may differ in a detail not shown here. Equal entries are not always repeated.

Assays:
[1] = target: PSGL-1 (Homo sapiens) (UniProt Q14242)
[2] = target: VSIG-3 (Homo sapiens) (UniProt Q5DX21)
Chain of UniProt Q5DX21 (Q5DX21 23-241): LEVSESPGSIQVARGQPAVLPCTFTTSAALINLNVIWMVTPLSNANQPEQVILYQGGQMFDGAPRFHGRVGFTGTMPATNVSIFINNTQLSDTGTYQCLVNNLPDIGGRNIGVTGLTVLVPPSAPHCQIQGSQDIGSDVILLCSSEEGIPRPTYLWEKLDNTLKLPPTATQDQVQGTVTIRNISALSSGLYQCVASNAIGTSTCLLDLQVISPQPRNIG

Chain of UniProt Q14242 (Q14242 42-320): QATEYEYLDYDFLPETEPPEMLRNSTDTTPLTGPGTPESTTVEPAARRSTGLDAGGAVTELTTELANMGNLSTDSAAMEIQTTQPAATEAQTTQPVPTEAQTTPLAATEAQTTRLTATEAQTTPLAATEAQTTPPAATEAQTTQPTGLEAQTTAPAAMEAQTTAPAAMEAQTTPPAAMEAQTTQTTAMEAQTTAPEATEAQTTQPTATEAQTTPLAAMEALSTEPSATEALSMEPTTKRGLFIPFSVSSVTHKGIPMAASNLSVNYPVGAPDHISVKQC

Kd [1]: 4 nM
Kd [2]: 20 nM and 80 nM
Substance: VISTA (from UniProt Q9H7M9)
